Target: human CC chemokine receptor 4 (CCR4) (human) (UniProt P51679)
Test: binding curve of FIG. 20B; cells not given

Chain of human CC chemokine receptor 4 (CCR4) (human) (P51679 whole entry): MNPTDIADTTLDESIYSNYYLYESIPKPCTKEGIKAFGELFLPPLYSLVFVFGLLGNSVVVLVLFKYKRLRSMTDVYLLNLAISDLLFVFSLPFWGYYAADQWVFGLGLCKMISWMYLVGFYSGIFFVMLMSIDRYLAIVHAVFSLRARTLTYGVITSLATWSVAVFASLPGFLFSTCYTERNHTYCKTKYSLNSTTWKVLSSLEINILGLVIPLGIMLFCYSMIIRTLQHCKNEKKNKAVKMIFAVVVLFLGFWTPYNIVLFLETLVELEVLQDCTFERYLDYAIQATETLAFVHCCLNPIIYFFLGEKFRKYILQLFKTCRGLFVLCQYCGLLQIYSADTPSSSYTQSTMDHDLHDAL

EC50: 5.07 nM
B1: KM2760 (anti-CCR4 chimeric antibody) (antibody, from another filing, V domains shown)
VH: EVQLVESGGDLMKPGGSLKISCAASGFIFSNYGMSWVRQTPDMRLEWVATISSASTYSYYPDSVKGRFTISRDNAENSLYLQMNSLRSEDTGIYYCGRHSDGNFAFGYWGRGTLVTVSA
VL: DVLMTQTPLSLPVSLGDQASISCRSSRNIVHINGDTYLEWYLQRPGQSPKLLIYKVSNRFSGVPDRFSGSGSGTDFTLKISRVEAEDLGVYYCFQGSLLPWTFGGGTRLEIRR

Source: patent US20160185865A1
